# Measurements: paper PMC10117100, “The E2F4/p130 Repressor Complex Cooperates with Oncogenic ΔNp73α To Inhibit Gene Expression in Human Papillomavirus 38 E6/E7-Transformed Keratinocytes and in Cancer Cells” (mSphere, 2023)
# T1: Gluc1-TAp73α (human, UniProt O15350 1-636)
# T1 construct: also called full-length TAp73α; source: HEK293T, transfected (pSPICA vector), in cells; not shown: Gluc1 (fragment of Gaussia princeps luciferase), N-terminal, kept
# T1 sequence (looked up): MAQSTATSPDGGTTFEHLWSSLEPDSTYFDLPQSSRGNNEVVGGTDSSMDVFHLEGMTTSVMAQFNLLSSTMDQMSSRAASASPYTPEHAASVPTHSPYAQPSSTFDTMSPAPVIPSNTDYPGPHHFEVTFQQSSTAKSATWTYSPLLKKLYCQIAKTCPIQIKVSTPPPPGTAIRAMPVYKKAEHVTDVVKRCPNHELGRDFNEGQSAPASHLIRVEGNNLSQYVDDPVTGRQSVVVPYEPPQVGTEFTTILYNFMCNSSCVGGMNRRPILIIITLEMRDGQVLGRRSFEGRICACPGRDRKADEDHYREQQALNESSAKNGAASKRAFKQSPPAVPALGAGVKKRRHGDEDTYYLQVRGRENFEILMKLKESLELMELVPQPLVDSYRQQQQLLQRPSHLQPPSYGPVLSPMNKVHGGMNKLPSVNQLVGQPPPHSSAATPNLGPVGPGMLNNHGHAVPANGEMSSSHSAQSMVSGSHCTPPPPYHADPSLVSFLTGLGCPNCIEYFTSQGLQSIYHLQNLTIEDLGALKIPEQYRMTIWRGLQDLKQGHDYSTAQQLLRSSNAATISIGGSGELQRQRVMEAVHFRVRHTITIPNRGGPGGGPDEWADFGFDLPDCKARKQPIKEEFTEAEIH
# T2: Gluc1-ΔNp73α FL (human, UniProt O15350-8 1-587)
# T2 construct: ΔNp73α isoform of p73, whole ORF, 587 residues by the printed numbering; numbers count on: ΔNp73α; source: HEK293T, transfected (pSPICA vector), in cells; not shown: Gluc1 (fragment of Gaussia princeps luciferase), N-terminal, kept
# T2 sequence (looked up): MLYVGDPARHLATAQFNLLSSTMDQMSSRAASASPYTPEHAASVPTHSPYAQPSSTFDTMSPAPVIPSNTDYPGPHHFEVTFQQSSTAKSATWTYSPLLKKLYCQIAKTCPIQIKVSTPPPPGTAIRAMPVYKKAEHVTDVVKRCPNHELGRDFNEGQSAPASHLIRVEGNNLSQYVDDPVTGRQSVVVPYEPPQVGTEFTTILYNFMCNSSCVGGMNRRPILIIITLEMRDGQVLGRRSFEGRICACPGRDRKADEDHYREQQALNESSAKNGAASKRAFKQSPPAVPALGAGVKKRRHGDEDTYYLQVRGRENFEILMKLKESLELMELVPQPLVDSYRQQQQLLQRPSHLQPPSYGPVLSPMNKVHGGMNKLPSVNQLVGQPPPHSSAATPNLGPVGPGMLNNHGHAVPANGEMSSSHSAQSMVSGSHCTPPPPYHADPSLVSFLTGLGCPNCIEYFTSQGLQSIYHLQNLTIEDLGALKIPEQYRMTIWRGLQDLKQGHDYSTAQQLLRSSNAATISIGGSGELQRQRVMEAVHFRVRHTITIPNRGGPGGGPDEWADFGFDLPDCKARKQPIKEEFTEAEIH
# B1: Gluc2-E2F4 FL (natural protein)
# chain: not shown
# notes: human E2F4, whole ORF (bought from Addgene), 413 residues by the printed numbering; source: HEK293T, transfected (pSPICA vector), in cells; not shown: Gluc2 (fragment of Gaussia princeps luciferase), N-terminal, kept
# B2: Gluc2-DP1 (natural protein, human, UniProt Q14186 1-410, looked up)
# chain: MAKDAGLIEANGELKVFIDQNLSPGKGVVSLVAVHPSTVNPLGKQLLPKTFGQSNVNIAQQVVIGTPQRPAASNTLVVGSPHTPSTHFASQNQPSDSSPWSAGKRNRKGEKNGKGLRHFSMKVCEKVQRKGTTSYNEVADELVAEFSAADNHILPNESAYDQKNIRRRVYDALNVLMAMNIISKEKKEIKWIGLPTNSAQECQNLEVERQRRLERIKQKQSQLQELILQQIAFKNLVQRNRHAEQQASRPPPPNSVIHLPFIIVNTSKKTVIDCSISNDKFEYLFNFDNTFEIHDDIEVLKRMGMACGLESGSCSAEDLKMARSLVPKALEPYVTEMAQGTVGGVFITTAGSTSNGTRFSASDLTNGADGMLATSSNGSQYSGSRVETPVSYVGEDDEEDDDFNENDEDD
# notes: human DP1, whole ORF (bought from Addgene); source: HEK293T, transfected (pSPICA vector), in cells; not shown: Gluc2 (fragment of Gaussia princeps luciferase), N-terminal, kept
# Columns and labels:
# Assay in all cases: split reporter (BiFC, NanoBiT); Gaussia princeps protein complementation assay (GPCA): Gluc1 and Gluc2 N-terminal fusions co-transfected in HEK293T, luminescence of lysates after 48 h as normalized luminescence ratio (NLR); pairs count as interacting if NLR is above 5
# Conditions in all cases: partners not purified
# [1] = biological target: T1, Gluc1-TAp73α
# [2] = biological target: T2, Gluc1-ΔNp73α FL
# [3] = biological target: T3, Gluc1-E2F4 (human, UniProt Q16254 1-413)
# T3 construct: human E2F4, whole ORF (bought from Addgene); source: HEK293T, transfected (pSPICA vector), in cells; not shown: Gluc1 (fragment of Gaussia princeps luciferase), N-terminal, kept
# T3 sequence (Q16254 whole entry, the tested form may be a part): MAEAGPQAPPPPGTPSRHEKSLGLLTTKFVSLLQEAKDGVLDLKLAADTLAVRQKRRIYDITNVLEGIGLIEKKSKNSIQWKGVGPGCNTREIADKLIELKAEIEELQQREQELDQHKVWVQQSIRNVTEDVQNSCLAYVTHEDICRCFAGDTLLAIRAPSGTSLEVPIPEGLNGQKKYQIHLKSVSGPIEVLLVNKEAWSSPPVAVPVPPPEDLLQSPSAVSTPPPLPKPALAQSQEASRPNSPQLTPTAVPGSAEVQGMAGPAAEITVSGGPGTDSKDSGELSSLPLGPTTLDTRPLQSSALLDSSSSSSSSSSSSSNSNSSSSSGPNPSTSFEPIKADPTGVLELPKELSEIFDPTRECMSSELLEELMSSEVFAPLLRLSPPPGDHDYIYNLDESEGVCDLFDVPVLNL
Binder,binding response relative to that obtained with ΔNp73α [1] [%],normalized luminescence ratio (NLR) [2],normalized luminescence ratio (NLR) [3]
B1,~50,> 20,–
B2,–,–,~500
